# B1: ASPA (protein, UniProt P45381 1-313, looked up)
# Aspartoacylase: MTSCHIAEEHIQKVAIFGGTHGNELTGVFLVKHWLENGAEIQRTGLEVKPFITNPRAVKKCTRYIDCDLNRIFDLENLGKKMSEDLPYEVRRAQEINHLFGPKDSEDSYDIIFDLHNTTSNMGCTLILEDSRNNFLIQMFHYIKTSLAPLPCYVYLIEHPSLKYATTRSIAKYPVGIEVGPQPQGVLRADILDQMRKMIKHALDFIHHFNEGKEFPPCAIEVYKIIEKVDYPRDENGEIAAIIHPNLQDQDWKPLHPGDPMFLTLDGKTIPLGGDCTVYPVFVNEAAYYEKKEAFAKTTKLTLNAKSIRCCLH
# B2: SEC14L4 (protein, UniProt Q9UDX3 1-406, looked up)
# SEC14-like protein 4: MSSRVGDLSPQQQEALARFRENLQDLLPILPNADDYFLLRWLRARNFDLQKSEDMLRRHMEFRKQQDLDNIVTWQPPEVIQLYDSGGLCGYDYEGCPVYFNIIGSLDPKGLLLSASKQDMIRKRIKVCELLLHECELQTQKLGRKIEMALMVFDMEGLSLKHLWKPAVEVYQQFFSILEANYPETLKNLIVIRAPKLFPVAFNLVKSFMSEETRRKIVILGDNWKQELTKFISPDQLPVEFGGTMTDPDGNPKCLTKINYGGEVPKSYYLCEQVRLQYEHTRSVGRGSSLQVENEILFPGCVLRWQFASDGGDIGFGVFLKTKMGEQQSAREMTEVLPSQRYNAHMVPEDGSLTCLQAGVYVLRFDNTYSRMHAKKLSYTVEVLLPDKASEETLQSLKAMRPSPTQ
# B3: URM1 (protein, UniProt Q9BTM9 1-101, looked up)
# Ubiquitin-related modifier 1: MAAPLSVEVEFGGGAELLFDGIKKHRVTLPGQEEPWDIRNLLIWIKKNLLKERPELFIQGDSVRPGILVLINDADWELLGELDYQLQDQDSVLFISTLHGG
# B4: PYGB (protein, UniProt P11216 2-843, looked up)
# Glycogen phosphorylase, brain …: AKPLTDSEKRKQISVRGLAGLGDVAEVRKSFNRHLHFTLVKDRNVATPRDYFFALAHTVRDHLVGRWIRTQQHYYERDPKRIYYLSLEFYMGRTLQNTMVNLGLQNACDEAIYQLGLDLEELEEIEEDAGLGNGGLGRLAACFLDSMATLGLAAYGYGIRYEFGIFNQKIVNGWQVEEADDWLRYGNPWEKARPEYMLPVHFYGRVEHTPDGVKWLDTQVVLAMPYDTPVPGYKNNTVNTMRLWSAKAPNDFKLQDFNVGDYIEAVLDRNLAENISRVLYPNDNFFEGKELRLKQEYFVVAATLQDIIRRFKSSKFGCRDPVRTCFETFPDKVAIQLNDTHPALSIPELMRILVDVEKVDWDKAWEITKKTCAYTNHTVLPEALERWPVSMFEKLLPRHLEIIYAINQRHLDHVAALFPGDVDRLRRMSVIEEGDCKRINMAHLCVIGSHAVNGVARIHSEIVKQSVFKDFYELEPEKFQNKTNGITPRRWLLLCNPGLADTIVEKIGEEFLTDLSQLKKLLPLVSDEVFIRDVAKVKQENKLKFSAFLEKEYKVKINPSSMFDVHVKRIHEYKRQLLNCLHVVTLYNRIKRDPAKAFVPRTVMIGGKAAPGYHMAKLIIKLVTSIGDVVNHDPVVGDRLKVIFLENYRVSLAEKVIPAADLSQQISTAGTEASGTGNMKFMLNGALTIGTMDGANVEMAEEAGAENLFIFGLRVEDVEALDRKGYNAREYYDHLPELKQAVDQISSGFFSPKEPDCFKDIVNMLMHHDRFKVFADYEAYMQCQAQVDQLYRNPKEWTKKVIRNIACSGKFSSDRTITEYAREIWGVEPSDLQIPPPNIPRD
# B5: ATAD3A (protein, UniProt Q9NVI7 2-586, looked up)
# ATPase family AAA …: SWLFGINKGPKGEGAGPPPPLPPAQPGAEGGGDRGLGDRPAPKDKWSNFDPTGLERAAKAARELEHSRYAKDALNLAQMQEQTLQLEQQSKLKEYEAAVEQLKSEQIRAQAEERRKTLSEETRQHQARAQYQDKLARQRYEDQLKQQQLLNEENLRKQEESVQKQEAMRRATVEREMELRHKNEMLRVEAEARARAKAERENADIIREQIRLKAAEHRQTVLESIRTAGTLFGEGFRAFVTDWDKVTATVAGLTLLAVGVYSAKNATLVAGRFIEARLGKPSLVRETSRITVLEALRHPIQVSRRLLSRPQDALEGVVLSPSLEARVRDIAIATRNTKKNRSLYRNILMYGPPGTGKTLFAKKLALHSGMDYAIMTGGDVAPMGREGVTAMHKLFDWANTSRRGLLLFVDEADAFLRKRATEKISEDLRATLNAFLYRTGQHSNKFMLVLASNQPEQFDWAINDRINEMVHFDLPGQEERERLVRMYFDKYVLKPATEGKQRLKLAQFDYGRKCSEVARLTEGMSGREIAQLAVSWQATAYASEDGVLTEAMMDTRVQDAVQQHQQKMCWLKAEGPGRGDEPSPS
# B6: IVD (protein, UniProt P26440 33-426, looked up)
# Isovaleryl-CoA dehydrogenase, …: HSLLPVDDAINGLSEEQRQLRQTMAKFLQEHLAPKAQEIDRSNEFKNLREFWKQLGNLGVLGITAPVQYGGSGLGYLEHVLVMEEISRASGAVGLSYGAHSNLCINQLVRNGNEAQKEKYLPKLISGEYIGALAMSEPNAGSDVVSMKLKAEKKGNHYILNGNKFWITNGPDADVLIVYAKTDLAAVPASRGITAFIVEKGMPGFSTSKKLDKLGMRGSNTCELIFEDCKIPAANILGHENKGVYVLMSGLDLERLVLAGGPLGLMQAVLDHTIPYLHVREAFGQKIGHFQLMQGKMADMYTRLMACRQYVYNVAKACDEGHCTAKDCAGVILYSAECATQVALDGIQCFGGNGYINDFPMGRFLRDAKLYEIGAGTSEVRRLVIGRAFNADFH
# B7: NUP35 (protein, UniProt Q8NFH5 1-326, looked up)
# Nucleoporin NUP35: MAAFAVEPQGPALGSEPMMLGSPTSPKPGVNAQFLPGFLMGDLPAPVTPQPRSISGPSVGVMEMRSPLLAGGSPPQPVVPAHKDKSGAPPVRSIYDDISSPGLGSTPLTSRRQPNISVMQSPLVGVTSTPGTGQSMFSPASIGQPRKTTLSPAQLDPFYTQGDSLTSEDHLDDSWVTVFGFPQASASYILLQFAQYGNILKHVMSNTGNWMHIRYQSKLQARKALSKDGRIFGESIMIGVKPCIDKSVMESSDRCALSSPSLAFTPPIKTLGTPTQPGSTPRISTMRPLATAYKASTSDYQVISDRQTPKKDESLVSKAMEYMFGW
# B8: ABT1 (protein, UniProt Q9ULW3 1-272, looked up)
# Activator of basal …: MEAEESEKAATEQEPLEGTEQTLDAEEEQEESEEAACGSKKRVVPGIVYLGHIPPRFRPLHVRNLLSAYGEVGRVFFQAEDRFVRRKKKAAAAAGGKKRSYTKDYTEGWVEFRDKRIAKRVAASLHNTPMGARRRSPFRYDLWNLKYLHRFTWSHLSEHLAFERQVRRQRLRAEVAQAKRETDFYLQSVERGQRFLAADGDPARPDGSWTFAQRPTEQELRARKAARPGGRERARLATAQDKARSNKGLLARIFGAPPPSESMEGPSLVRDS
# Key:
# [1] = molecular target: His6-avi-MBP-tagged POLE2; test: Single-point nHU-MS with recombinant His6-avi-MBP-POLE2 bait, Jurkat extract; format: binding, human; conditions: significant apparent affinity of endogenous prey protein for POLE2 bait; single-point nHU-MS; Figure S11
# Source text: So far, our study only focused on a few hand-picked NPF motifs and studied them as short synthetic peptides. However, many other proteins may be present in the proteome that could bind to POLE2 and their putative NPF motifs are embedded in their natural structures that can greatly affect their binding properties. To investigate interactions between POLE2 and intact, full length proteins proteome-wide, we used nHU-MS experiments with recombinant His6-avi-MBP-tagged POLE2 as bait and purified His6-avi-MBP as a control. Even though we are aware that this recombinant POLE2 may bind to NPF motifs with a somewhat altered affinity, we assumed that this would affect all NPF motif-mediated interactions equally, allowing an unbiased affinity ranking of all identified partners. Single point nHU measurements were performed at 26 μM POLE2 concentration and the recovered supernatant was measured by label free proteomic MS measurements (Fig. 3A, Supplementary Figs. 8A, 9, Supplementary Data 1).
# Single-point nHU experiments with protein baits were carried out nearly identically with two key modifications. First, the resin saturation step was carried out by mixing 50 μl streptavidin resin with 0.5−1 ml 50 μM biotinylated protein solution and the mixture was incubated for 1.5 h at 4 °C with constant agitation. Second, instead of using estimated bait concentrations, we measured it experimentally. An extra aliquot of resin stock was prepared alongside the nHU samples that were identically processed that were used to eluate the immobilized proteins under harsh conditions, in order to experimentally quantify the Cbait by using densitometry of Coomassie stained SDS-PAGE that included a protein calibration series. For this, 50 μl bait-saturated resin aliquots were mixed with 200 μl 4x Laemmli Sample Buffer (120 mM Tris-HCl pH 7, 8% SDS, 100 mM DTT, 32% glycerol, 0.004% bromphenol blue, 1% β-mercaptoethanol), instead of cell extract. After 15 min incubation at 95 °C, these samples were analyzed by SDS-PAGE using protein calibration standard, made from recombinant MBP. Densitometry was carried out after Coomassie staining on raw Tif images by using Fiji ImageJ 1.53c and experimental bait concentration were determined by adjusting for molecular weight differences between MBP and MBP-POLE2 constructs.
# Samples were digested overnight at 37 °C.
# POLE2 S522A = test: Proximity labeling MS, POLE2 S522A; conditions: bait POLE2_S522A
# POLE2 E520A = test: Proximity labeling MS, POLE2 E520A; conditions: bait POLE2_E520A
# POLE2 WT = test: Proximity labeling MS, MAC3-tagged POLE2 WT in Flp-In T-REx 293 cells; format: cell-based, human; conditions: bait POLE2_WT
# POLE2 Y311F = test: Proximity labeling MS, POLE2 Y311F; conditions: bait POLE2_Y311F
molecule,measurement,setting,value
B1,pKapp_sign,[1],5.902
B2,pKapp_sign,[1],5.194
B3,pKapp_sign,[1],4.219
B4,pKapp_sign,[1],4.228
B5,pKapp_sign,[1],4.126
B6,pKapp_sign,[1],4.276
B7,pKapp_sign,[1],4.141
B8,AvgSpec,POLE2 S522A; mean of 3 replicates,14.33
same,Spec,POLE2 S522A; replicate 1,12
same,Spec,POLE2 S522A; replicate 2,14
same,Spec,POLE2 S522A; replicate 3,17
same,SpecSum,POLE2 S522A; sum of 3 replicates,43
same,FoldChange,POLE2 S522A; versus control counts,11.82
same,AvgSpec,POLE2 E520A; mean of 3 replicates,9.33
same,Spec,POLE2 E520A; replicate 1,14
same,Spec,POLE2 E520A; replicate 2,7
same,Spec,POLE2 E520A; replicate 3,7
same,SpecSum,POLE2 E520A; sum of 3 replicates,28
same,FoldChange,POLE2 E520A; versus control counts,7.7
same,AvgSpec,POLE2 WT; mean of 6 replicates,7.33
same,Spec,POLE2 WT; replicate 1,9
same,Spec,POLE2 WT; replicate 2,11
same,Spec,POLE2 WT; replicate 3,13
same,Spec,POLE2 WT; replicate 4,4
same,Spec,POLE2 WT; replicate 5,2
same,Spec,POLE2 WT; replicate 6,5
same,SpecSum,POLE2 WT; sum of 6 replicates,44
same,FoldChange,POLE2 WT; versus control counts,6.05
same,AvgSpec,POLE2 Y311F; mean of 3 replicates,9.67
same,Spec,POLE2 Y311F; replicate 1,11
same,Spec,POLE2 Y311F; replicate 2,8
same,Spec,POLE2 Y311F; replicate 3,10
same,SpecSum,POLE2 Y311F; sum of 3 replicates,29
same,FoldChange,POLE2 Y311F; versus control counts,7.97

# From article PMC12808100, “The non-catalytic DNA polymerase ε subunit is an NPF motif recognition protein” (Nature Communications, 2025)
